# Results taken from the nanobody polyreactivity screen of Harvey et al. (2022).
# Assay: yeast display, Sf9 membrane polyspecificity reagent, FACS + sequencing; frameworks hold sequencing errors
# Procedure, shortened: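 Sorting gates, low and high (top ~1%), were placed on anti-HA fluorescence to track expression and on streptavidin fluorescence to track reagent binding. A clone's polyreactivity label is taken from the gate it came out of. The reagent was 10% biotinylated, detergent-solubilized Sf9 membrane, applied for 1 hour at 4 °C to galactose-induced yeast display cells.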
sequence,measurement,value
QVQLVESGGGLVQAGGSLSLSCAASARIFYGYAMGWYRQEPGKEREFVAAITSGGRTYYADSVKGRFTISRDNAKNTVYLQMNSLKPEDTAVYYCAAAQYYRYGYWGQGTQVTVSS,polyreactivity (PSR sort gate),high polyreactivity
QVQLVESGGGLVQAGGSLSLSCAASARTFYYYAMGWSRQAPGKEREFVASITWRGGRTYYADSVKGRFTISRDNAKNTVYLQMNSLKPEDTAVYYCAADGSYAIGGYGYWGQGTQVTVSS,polyreactivity (PSR sort gate),high polyreactivity
QVQLVESGGGLVQAGGSLSLSCAASGFIFGGNAMGWYRQAPGKERELVAAISSGGRTYYADSVKGRFTISRDNAKNTVYLQMNSLKPEDTAVYYLNDYSYHRGRDYWGQGTQVTVSS,polyreactivity (PSR sort gate),low polyreactivity
QVQLVESGGGLVQAGGSLSLSCAASGFIFSYYVMGWYRQAPGKERELVAAINESGGRTYYADSVKGRFTISRDNAKNTVYLQMNSLNPEDTAVYYCAASVLNKIQGYRDYYWGQGTQVTVSS,polyreactivity (PSR sort gate),low polyreactivity
QVQLVESGGGLVQAGGSLSLSCAASGFIFTPYTMGWYREAPGKERELVAAITDGSSTNYADSVKGRFTISRDNAKNTVYLQMNSLKPEDTAVYYCAKDWPSAVYGSWAGRYDYWGQGSQVTVSS,polyreactivity (PSR sort gate),low polyreactivity
QVQLVESGGGLVQAGGSLSLSCAASGFTFPLYAMGWYRPAPGKERELVASISKSGGRTYYADSVKGRFTISRDNAKNTVYLQMNSLKPEDTAVYYCATLPRYYGYWGQGTQVTVSS,polyreactivity (PSR sort gate),high polyreactivity
QVQLVESGGGLVQAGGSLSLSCAASGFTFRWYAMGWYRQAPGKERELVAAISSDDDTSYADSVKGRFTISRDNAKNTVYLQMNSLKPEDTAVYDCAADGYYTLDAYPYGIFWYDYWGQGTQVTVSS,polyreactivity (PSR sort gate),low polyreactivity
QVQLVESGGGLVQAGGSLSLSCAASGFTFRYNAMGWYRQAPGKERELVARISSTGGGTSYADSVKGRFTISRDNAKNTVYLQMNSLKPEDTAVYYCAAPVRRYPYPGRFYYWGQGTQVTVSS,polyreactivity (PSR sort gate),low polyreactivity
QVQLVESGGGLVQAGGSLSLSCAASGFTFSVYVLGWYRQAPGKERELVAAISSGGDTTYADSVKGRFTISRDNAKNTVYLQMNSLNPVDTAVYYCAADPGYYSWGSSQDDYWGQGTQVTVSS,polyreactivity (PSR sort gate),low polyreactivity
QVQLVESGGGLVQAGGSLSLSCAASGFTFYENAMGWYRQAPGKERELVATISYSGGTTYYADSVKGRFTISRDNAKNTVYLQMNSLKPEDTAVYYCNADYFYYGFPDDYWGQGTQVTVSS,polyreactivity (PSR sort gate),low polyreactivity
QVQLVESGGGLVQAGGSLSLSCAASGFTFYYYAMGLYRQAPGKERELVAAISWSGGSTYYADSVKGRFTISRDIAKNSVYLQMNCLKPEYTAVYYCNAVGYTAYDYWGQGTQVTVSS,polyreactivity (PSR sort gate),high polyreactivity
QVQLVESGGGLVQAGGSLSLSCAASGGTFSPYAMGWYRQAPGKERELVAITSSDSTNYADSVKGRFTISRDNAKNTVYLQMNSLKPEDTAVYYCNAGYPIPEDYLAYGNFDYWGQGTQVTVSS,polyreactivity (PSR sort gate),low polyreactivity
QVQLVESGGGLVQAGGSLSLSCAASGGTFSYYAMGWYRQAPGKGELVAAISSGGSTNYADSVKGRFTISRDNAINTAYLQMNSLKPEDTAVYYCADRYRFWGPYNYWGQGTQVTVSS,polyreactivity (PSR sort gate),high polyreactivity
QVQLVESGGGLVQAGGSLSLSCAASGGTFYQYAMGWYRQAPGKERELVAAISTSGARTYYADSVKGRFTISRDNAKNTVYLQMNSLKTEDTAVYYCAADHIRGGLDYWGQGTQVTVSS,polyreactivity (PSR sort gate),high polyreactivity
QVQLVESGGGLVQAGGSLSLSCAASGIIFVDYAMGWYRQAPGKERELVAVIRSAGSTYYADSVKGRFTISRDNAKNTVYLQMNSLKPEDTAVYYCNARARGARRYYYWGQGTQVTVSS,polyreactivity (PSR sort gate),high polyreactivity
QVQLVESGGGLVQAGGSLSLSCAASGLIFITYAMGWYRQAPGKERELVATITLRGGSTYYADSVKGRFTISRDNAKNTVYLQMNSLKPEDTAVYYCAADVGYWGRSRGYPSDDYDYWGQGTQVTVSS,polyreactivity (PSR sort gate),low polyreactivity
QVQLVESGGGLVQAGGSLSLSCAASGLIFYYYAMGWYRQAPGKERELVAAISGSGGSTYYADSVKGRFTISRDNAKNTVYLQMNSLKPEDTAVYYCAAESQYTYGYGYWGQGTQVTVSS,polyreactivity (PSR sort gate),high polyreactivity
QVQLVESGGGLVQAGGSLSLSCAASGLIYYSYAMGWYRQAPGKERELVAAITGGGSTNYADSVKGRFTISPDNAKNTVYLQMNSLKPEDTAVYYCAAAFTLRKYDYWGQGTQVSVSS,polyreactivity (PSR sort gate),low polyreactivity
QVQLVESGGGLVQAGGSLSLSCAASGLTFVDNAMGWYRQAPWKERELVAAISYNGGSTYYADSVKGRFTISRDHAKTTVYLQMNSLKPEDTAVYSCAADIYVGRYGDMDFWGQGTQVTVSS,polyreactivity (PSR sort gate),low polyreactivity
QVQLVESGGGLVQAGGSLSLSCAASGRIFGHNAMGWYRQAPGKERELVATISSGVRTNYADSVKGRFTISRDNAKNTVYLQMNSLKPEDTAVYYCATKTYQFGYSSYYYWGQGTQVTVSS,polyreactivity (PSR sort gate),high polyreactivity
QVQLVESGGGLVQAGGSLSLSCAASGRIFSTYAMGWYRQAPGKERELVAAITSRGTSTYYADSVKGRFTISRDNAKNTVYLQINSLKPEDSAVYYCAARRERWSSSIVGYWGQGTQVTVSS,polyreactivity (PSR sort gate),high polyreactivity
QVQLVESGGGLVQAGGSLSLSCAASGRIFVSYAMGWYRQAPGKERELVAAISYSGGSTYYADSVKGRFTISRDNAKNTVYLQMNSLKPEDTAVYYCAKDGGVYAPAGDDDYWGQGTQVTVSS,polyreactivity (PSR sort gate),low polyreactivity
QVQLVESGGGLVQAGGSLSLSCAASGRIIKFYAMGWYRQAPGKERELVARISRSGGRTYYSDSVKGRFTISRDNAKNTVYLQMNSLKPEDPAVYYCNADGDNRRDRYEYWGQGTQVTVSS,polyreactivity (PSR sort gate),low polyreactivity
QVQLVESGGGLVQAGGSLSLSCAASGRSFFNYAMGWYRQAPGKERELVAAISFSDGSTYYADSVKGRFTISRDNAKNTVYLQMNSLKPEDTAVYYCAAEPDYVYYRSDQALFDYWGQGTQVTVSS,polyreactivity (PSR sort gate),high polyreactivity
QVQLVESGGGLVQAGGSLSLSCAASGRTFDDNAMGWYRQAPGKERELVAAISSTGSTNYADSLKGRFTISRDNAKNTVYLQMNSLKPEDTAVYYCNTDGGHERAYYYWGQCTQVTVSS,polyreactivity (PSR sort gate),low polyreactivity
QVQLVESGGGLVQAGGSLSLSCAASGRTLYLYTMGWYRQAPGKERELVASINWRGSTYYADSVKGRFTISRDNAKNTVYLQMNSLKPEDTAVYYCNVGGPSGGMYYWGQGTQVTVSS,polyreactivity (PSR sort gate),low polyreactivity
QVQLVESGGGLVQAGGSLSLSCAASGSIFDYYDMGWYRQSPGKERQLVAAITGSGGNTYYADSVKGRFTISRDNAKNTVYLQMNSLKPEDTAVYYCAAYGLYGAHTGYGSWGQCTQVTVSS,polyreactivity (PSR sort gate),high polyreactivity
QVQLVESGGGLVQAGGSLSLSCAASGSIFFYAMGGYRPAPGKERELVADITYTGGSKYADSVKGRFTISRDNAKYTVYLQMNSLKPEDTAVYSCAKLDGGLFDYWGHGTQVTVSS,polyreactivity (PSR sort gate),low polyreactivity
QVQLVESGGGLVQAGGSLSLSCAASGSIFGDYVLGWYRQAPGKERELVAAINRGGSTYYADSVKGRFTISRDNAKNTVYLQMNSLKPEDTAVYYCAAGYPSWYYGYPYDSWGLGTQVTVSS,polyreactivity (PSR sort gate),low polyreactivity
QVQLVESGGGLVQAGGSLSLSCAASGSIFPYYAMGWYRQAPGKESELVAAISRGGGTTYYADSVKGRFTISRDNAKNSVYLQMNSLKPEDTAVYSGAARRWGEYDYWGQGTQVTVSS,polyreactivity (PSR sort gate),high polyreactivity
QVQLVESGGGLVQAGGSLSLSCAASGSIFVRYAMGWSRHAPWKERELVAAISVRGGRTYYAYSVKGRFTISRDNAKNTVYLQMNRLKPEATAVYYCAAQLYYYYSYVPPGGYWGQGTQVTVSA,polyreactivity (PSR sort gate),high polyreactivity
QVQLVESGGGLVQAGGSLSLSCAASGSILPYNTMGWDRQAPGKERELVAAITSGVGSTYADSVKGRFTISRDNAKNTVYLQMNSLKPEDTAVYYCNASESAIPIGDLGDYWGQGTQVTVSS,polyreactivity (PSR sort gate),low polyreactivity
